The term IC50 denotes the concentration that gives 50% inhibition. Higher therefore signals a need for much substance.

Bridges are numbered along the chain shown (N, C = ends). Primed or numbered codes have the meaning given here. Where no end group is shown, it is not given here. [ ]: non-standard residue; d: D form. S5′ = (S)-2-(4'-pentenyl)alanine, olefinic stapling residue closed by ring-closing metathesis; NMeR′ = N-methylarginine (methylation site not shown in the text); 2Nal = N[C@@H](Cc1ccc2ccccc2c1)C(=O)O; pentenylAla = 2-(4'-pentenyl)alanine; NMeR = CN[C@@H](CCCNC(=N)N)C(=O)O; Ala(cPr) = N[C@@H](CC1CC1)C(=O)O; NMeT = CN[C@H](C(=O)O)[C@@H](C)O; hArg = N=C(N)NCCCC[C@H](N)C(=O)O; NMeQ = CN[C@@H](CCC(N)=O)C(=O)O; dNMeQ = CN[C@H](CCC(N)=O)C(=O)O; Cha = N[C@@H](CC1CCCCC1)C(=O)O; NMeL = CN[C@@H](CC(C)C)C(=O)O; αMeL = CC(C)C[C@](C)(N)C(=O)O; Cba = N[C@@H](CC1CCC1)C(=O)O; S5 = C=CCCC[C@](C)(N)C(=O)O; Nle = CCCC[C@H](N)C(=O)O; Abu = CC[C@H](N)C(=O)O; βAla = NCCC(=O)O

The values that follow come from patent publication US20200262867A1 (WNTRX PHARMACEUTICALS, published 2020).

T1: β-catenin (UniProt P35222 1-781, limits assumed)
T1 construct: also called beta-catenin
T1 sequence (looked up): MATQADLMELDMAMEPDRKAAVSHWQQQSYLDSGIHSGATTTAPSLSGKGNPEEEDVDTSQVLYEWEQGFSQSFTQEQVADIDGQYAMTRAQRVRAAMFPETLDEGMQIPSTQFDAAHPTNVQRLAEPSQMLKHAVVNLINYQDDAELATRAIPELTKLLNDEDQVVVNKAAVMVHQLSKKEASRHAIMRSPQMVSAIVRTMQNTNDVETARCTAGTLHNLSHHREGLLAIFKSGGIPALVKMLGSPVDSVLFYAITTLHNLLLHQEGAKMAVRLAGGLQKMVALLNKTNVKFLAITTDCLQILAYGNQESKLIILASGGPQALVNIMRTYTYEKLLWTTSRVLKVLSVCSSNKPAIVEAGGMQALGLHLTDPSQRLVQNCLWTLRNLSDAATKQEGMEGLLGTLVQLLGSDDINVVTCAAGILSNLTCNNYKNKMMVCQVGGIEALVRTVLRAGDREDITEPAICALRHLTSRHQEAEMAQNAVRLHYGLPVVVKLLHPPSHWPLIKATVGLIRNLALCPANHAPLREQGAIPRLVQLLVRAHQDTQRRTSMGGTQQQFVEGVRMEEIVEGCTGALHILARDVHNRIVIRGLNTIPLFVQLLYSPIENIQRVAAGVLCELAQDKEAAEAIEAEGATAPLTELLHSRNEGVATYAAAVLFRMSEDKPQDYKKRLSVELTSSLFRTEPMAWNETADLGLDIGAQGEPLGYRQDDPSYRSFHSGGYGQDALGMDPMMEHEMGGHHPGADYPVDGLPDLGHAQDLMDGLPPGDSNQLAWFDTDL

B1: SEQ ID NO: 128 (peptide)
peptide: Ac-LQTL[NMeR′][S5]IQ[NMeR′][S5][Cba][2Nal]-NH2
modifications: staple 6-10; not fully specified (residue 2); printed as L(N-methylQ)TL(N-methylR)XIQ(N-methylR)X(CBA)(2-Nal)
B2: SEQ ID NO: 40 (peptide)
peptide: Ac-RE[S5]SLQ[S5]LR[S5]IQR[S5]L[2Nal][βAla][βAla]-NH2
modifications: staple 10-14, 3-7; not fully specified; printed as REXaa1SLQXaa2LRXaa3IQRXaa4L(2-Nal)(β-Ala)(β-Ala)
B3: SEQ ID NO: 120 (peptide)
peptide: HOCH2CH2CO-LQTLR[S5]IQR[S5][Cba][2Nal]-NH2
modifications: staple 6-10; not fully specified (residue 2); printed as L(N-methylQ)TLRXIQRX(CBA)(2-Nal)
B4: SEQ ID NO: 132 (peptide)
peptide: Ac-L[NMeQ]TL[hArg][S5]IQR[S5][Cba][2Nal]-NH2
modifications: staple 6-10; not fully specified; printed as L(N-methylQ)TL(homoR)XIQRX(CBA)(2-Nal)
B5: SEQ ID NO: 122 (peptide)
peptide: Ac-LQTLR[S5]IQR[S5][Cha][2Nal]-NH2
modifications: staple 6-10; not fully specified (residue 2); printed as L(N-methylQ)TLRXIQRX(Cha)(2-Nal)
B6: SEQ ID NO: 121 (peptide)
peptide: Ac-LQ[NMeT]LR[S5]IQR[S5][Cba][2Nal]-NH2
modifications: staple 6-10; not fully specified (residue 2); printed as L(N-methylQ)(N-methylT)LRXIQRX(CBA)(2-Nal)
B7: SEQ ID NO: 125 (peptide)
peptide: Ac-L[NMeQ]TLR[S5]IQ[NMeR′][S5][Cba][2Nal]-NH2
modifications: staple 6-10; not fully specified; printed as L(N-methylQ)TLRXIQ(N-methylR)X(CBA)(2-Nal)
B8: SEQ ID NO: 126 (peptide)
peptide: Ac-L[NMeQ]T[αMeL]R[S5]IQR[S5][Cba][2Nal]-NH2
modifications: staple 6-10; not fully specified; printed as L(N-methylQ)T(α-methylL)RXIQRX(CBA)(2-Nal)
B9: SEQ ID NO: 124 (peptide)
peptide: Ac-L[NMeQ]TL[NMeR′][S5]IQR[S5][Cba][2Nal]-NH2
modifications: staple 6-10; not fully specified; printed as L(N-methylQ)TL(N-methylR)XIQRX(CBA)(2-Nal)
B10: SEQ ID NO: 127 (peptide)
peptide: Ac-LQTLR[S5]IQR[S5][Cha][2Nal]-NH2
modifications: staple 6-10
SMILES: CC[C@H](C)[C@@H]1NC(=O)[C@@](C)(NC(=O)[C@H](CCCNC(=N)N)NC(=O)[C@H](CC(C)C)NC(=O)[C@@H](NC(=O)[C@H](CCC(N)=O)NC(=O)[C@H](CC(C)C)NC(C)=O)[C@@H](C)O)CCCC=CCCC[C@@](C)(C(=O)N[C@@H](CC2CCCCC2)C(=O)N[C@@H](Cc2ccc3ccccc3c2)C(N)=O)NC(=O)[C@H](CCCNC(=N)N)NC(=O)[C@H](CCC(N)=O)NC1=O
B11: SEQ ID NO: 118 (peptide)
peptide: Ac-[NMeL]QTLR[S5]IQR[S5][Cba][2Nal]-NH2
modifications: staple 6-10; not fully specified (residue 2); printed as (Me-L)(N-MeQ)TLRXIQRX(CBA)(2-Nal)
B12: SEQ ID NO: 119 (peptide)
peptide: Ac-LQTLR[S5]IQR[S5][Ala(cPr)][2Nal]-NH2
modifications: staple 6-10; not fully specified (residue 2); printed as LN(Me-Gln)TLRXIQRX(Cpa)(2-Nal)

In this experiment the target is T1, β-catenin. In words: ALPHA Screen (BCL9/β-catenin).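 Further: bead proximity readout with the polypeptide linked to donor beads and β-catenin fixed on acceptor beads, their binding bringing the beads close enough to emit signal.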
Source text: In this assay, a polypeptide is conjugated to a donor bead and its target protein (i.e., β-catenin) is attached to an acceptor bead. When the two beads are in proximity due to the binding of the polypeptide to the target protein, a signal is generated and the binding affinity of the polypeptide can be quantitatively calculated. The assay may be conducted in the presence or absence of an unconjugated control polypeptide.
Turning to Ac-LQTLR[S5]IQR[S5]L[2Nal]P-NH2 (staple 6-10; not fully specified; printed as LQTLRXIQRXL(2-Nal)P) [SEQ ID NO: 33], the midpoint of inhibition, the IC50, lay at 11.8 µM.

Molecule Ac-HRE[S5′]SLQ[S5′]LR[Nle]IQR[Nle]L[2Nal]-OH (staple 4-8) [SEQ ID NO: 80] showed an IC50 of 5.33 µM.

Ac-HRE[S5′]SLQ[S5′]LR[Nle]IQR[Nle][Cba][2Nal]-OH (staple 4-8) [SEQ ID NO: 81]: 45.5 µM corresponded to half-maximal inhibition (IC50).

As for H-HRE[S5′]SLQ[S5′]LR[S5′]IQR[S5′][Cba][2Nal]-OH (staple 11-15, 4-8) [SEQ ID NO: 82], half-maximal inhibition (IC50) required 1.01 µM.

The molecule Ac-HRQ[S5′]SLQ[S5′]LR[S5′]IQR[S5′][Cba][2Nal]-NH2 (staple 11-15, 4-8) [SEQ ID NO: 87] came in with an IC50 of 2.66 µM.

Molecule Ac-HRE[S5′]SLQ[S5′]LR[S5′]IQQ[S5′][Cba][2Nal]-OH (staple 11-15, 4-8) [SEQ ID NO: 83] registered an IC50 of 50 µM.

Take B1: the IC50 was 29.5 µM.

B2 returned an IC50 of 2.39 µM.

Ac-QLEHRERSL[S5]TLR[S5]IQR[Abu]L[2Nal][βAla][βAla]-NH2 (staple 10-14) [SEQ ID NO: 78] displayed a half-inhibitory concentration (IC50) of 0.09 µM.

Regarding B3, 5.44 µM corresponded to half-maximal inhibition (IC50).

Regarding B4, the IC50 was found to be 11.2 µM.

Consider LQTLR[Nle]IQR[Nle]L[2Nal] [SEQ ID NO: 52], for which inhibition was half-maximal at 4.7 µM (IC50).

Turning to Ac-LQTL[NMeR][S5]IQR[S5][Cba][2Nal]-NH2 (staple 6-10; not fully specified (residue 2)) [SEQ ID NO: 117], the midpoint of inhibition, the IC50, lay at 4.23 µM.

Take B5: the IC50 came to 7.17 µM.

In turn, B6 had an IC50 of 5.01 µM.

Take Ac-LQTLR[S5]IQR[S5]L[2Nal]PD-NH2 (staple 6-10; not fully specified; printed as LQTLRXIQRXL(2-Nal)PD) [SEQ ID NO: 32]: the IC50 was found to be 12.2 µM.

B7 returned an IC50 of 10.6 µM.

Molecule B8 came in with an IC50 of 7.43 µM.

Consider B9, for which the IC50 was determined as 2.74 µM.

EHRERSLQTLRDIQRML[2Nal] [SEQ ID NO: 63] gave an IC50 of 2.5 µM.

For B10, the IC50 worked out at 10.1 µM.

R[pentenylAla][Ala(cPr)][dNMeQ][pentenylAla][Ala(cPr)]R[pentenylAla]IQR[pentenylAla][Ala(cPr)][2Nal][βAla][βAla] (staple 8-12, 2-5) [SEQ ID NO: 89] displayed an IC50 of 2.46 µM.

Regarding LQTLRDIQRML[2Nal] [SEQ ID NO: 51], the IC50 is 5.78 µM.

Ac-L[NMeQ]TLR[S5]IQ[hArg][S5][Cba][2Nal]-NH2 (staple 6-10; also: N-methyl-Gln at 2: filing says both D and L) [SEQ ID NO: 133] gave an IC50 of 9.2 µM.

Ac-LQTLR[S5]IQR[S5][Cba][2Nal]-NH2 (staple 6-10) [SEQ ID NO: 107] displayed an IC50 of 0.316 µM.

Take Ac-HR[S5′]RSL[S5′]TLR[S5′]IQR[S5′][Cba][2Nal]-NH2 (staple 11-15, 3-7) [SEQ ID NO: 94]: the IC50 was 0.175 µM.

In turn, EHRERSLQTLR[Nle]IQR[Nle]L[2Nal] [SEQ ID NO: 64] showed a half-maximal inhibitory concentration (IC50) of 1.73 µM.

LR[Nle]IQR[Nle]L[2Nal] [SEQ ID NO: 50] displayed an IC50 of 2.54 µM.

For the molecule QLEHRERSLQTLRDIQRML[2Nal] [SEQ ID NO: 65], half-maximal inhibition (IC50) required 1.64 µM.

Turning to QLEHRERSL[Nle]TLR[Nle]IQRML[2Nal] [SEQ ID NO: 67], the IC50 worked out at 1.08 µM.

As for QLEHRERSLQTLR[Nle]IQR[Nle]L[2Nal] [SEQ ID NO: 66], the 50% inhibitory concentration (IC50) stood at 0.73 µM.

In turn, B11 registered a concentration for half-maximal inhibition (IC50) of 6.33 µM.

Regarding B12, the IC50 turned out to be 15.8 µM.
